The labels stand for the following.
B1: MYT1156 (antibody, V domains shown)
VH: QVQLVQSGAEVVKPGASVKISCKHSGYTFTGYFMNWVKQSPGQSLEWIGRIHPHDGDTHYNQKFQGKATLTVDKSSNTAHMELLSLTSEDFAVYYCTRYDGSRAMDYWGQGTTVTVSS
VL: DIVLTQSPLSLAVSLGQPAIISCKASQSVSFAGTSLMHWYHQKPGQQPRLLIYRASNLEAGVPDRFSGSGSKTDFTLTISPVEAEDAATYYCQQSREYPYTFGGGTKLEIK
notes: IgG
B2: MYT1574 (antibody, V domains shown)
VH: B1 VH with H24A, H54Y, H59F
VL: B1 VL with R54H
notes: IgG
B3: MYT1581 (antibody, V domains shown)
VH: B1 VH with H24A, H54Y, H59F
VL: B1 VL with Q93H
notes: IgG
B4: MYT1157 (antibody, V domains shown)
VH: B1 VH with H54Y, T58H
VL: B1 VL
notes: IgG
B5: MYT1579 (antibody, V domains shown)
VH: B1 VH with H24A, H54Y, H59F
VL: B1 VL with E59H
notes: IgG
B6: MYT1569 (antibody, V domains shown)
VH: B1 VH with H24A, H54Y, H59F
VL: B1 VL with T34H
notes: IgG
B7: MYT1583 (antibody, V domains shown)
VH: B1 VH with H24A, H54Y, H59F
VL: B1 VL with S95H
notes: IgG
B8: MYT1561 (antibody, V domains shown)
VH: B1 VH with H24A, H54Y, H59F
VL: B1 VL with S26H
notes: IgG
B9: MYT1580 (antibody, V domains shown)
VH: B1 VH with H24A, H54Y, H59F
VL: B1 VL with A60H
notes: IgG
B10: MYT1158 (antibody, V domains shown)
VH: B1 VH with H24A, Y27H, T58H, H59F
VL: B1 VL
notes: IgG
B11: MYT1565 (antibody, V domains shown)
VH: B1 VH with H24A, H54Y, H59F
VL: B1 VL with S30H
notes: IgG
B12: MYT1567 (antibody, V domains shown)
VH: B1 VH with H24A, H54Y, H59F
VL: B1 VL with A32H
notes: IgG
B13: MYT1559 (antibody, V domains shown)
VH: B1 VH with H24A, H54Y, H59F
VL: B1 VL with K24H
notes: IgG
B14: MYT1585 (antibody, V domains shown)
VH: B1 VH with H24A, H54Y, H59F
VL: B1 VL with E97H
notes: IgG
B15: MYT1582 (antibody, V domains shown)
VH: B1 VH with H24A, H54Y, H59F
VL: B1 VL with Q94H
notes: IgG
B16: MYT1586 (antibody, V domains shown)
VH: B1 VH with H24A, H54Y, H59F
VL: B1 VL with Y98H
notes: IgG
B17: MYT1575 (antibody, V domains shown)
VH: B1 VH with H24A, H54Y, H59F
VL: B1 VL with A55H
notes: IgG
B18: MYT1588 (antibody, V domains shown)
VH: B1 VH with H24A, H54Y, H59F
VL: B1 VL with Y100H
notes: IgG
B19: MYT1573 (antibody, V domains shown)
VH: B1 VH with H24A, H54Y, H59F
VL: B1 VL with H38A
notes: IgG
B20: MYT1159 (antibody, V domains shown)
VH: B1 VH with H24A, Y27H
VL: B1 VL
notes: IgG
B21: MYT1571 (antibody, V domains shown)
VH: B1 VH with H24A, H54Y, H59F
VL: B1 VL with L36H
notes: IgG
B22: MYT1562 (antibody, V domains shown)
VH: B1 VH with H24A, H54Y, H59F
VL: B1 VL with Q27H
notes: IgG
B23: MYT1577 (antibody, V domains shown)
VH: B1 VH with H24A, H54Y, H59F
VL: B1 VL with N57H
notes: IgG
B24: MYT1576 (antibody, V domains shown)
VH: B1 VH with H24A, H54Y, H59F
VL: B1 VL with S56H
notes: IgG
B25: MYT1563 (antibody, V domains shown)
VH: B1 VH with H24A, H54Y, H59F
VL: B1 VL with S28H
notes: IgG
B26: MYT1566 (antibody, V domains shown)
VH: B1 VH with H24A, H54Y, H59F
VL: B1 VL with F31H
notes: IgG
B27: MYT1160 (antibody, V domains shown)
VH: B1 VH with H24A, Y27H, H54Y, T58H
VL: B1 VL
notes: IgG
B28: MYT1568 (antibody, V domains shown)
VH: B1 VH with H24A, H54Y, H59F
VL: B1 VL with G33H
notes: IgG
B29: MYT1578 (antibody, V domains shown)
VH: B1 VH with H24A, H54Y, H59F
VL: B1 VL with L58H
notes: IgG
B30: MYT1584 (antibody, V domains shown)
VH: B1 VH with H24A, H54Y, H59F
VL: B1 VL with R96H
notes: IgG
B31: MYT1570 (antibody, V domains shown)
VH: B1 VH with H24A, H54Y, H59F
VL: B1 VL with S35H
notes: IgG

Positions count from the first letter of the chain named.

In this test the target is T1, FOLR1 (R&D Systems, Cat #5646-FR) (human, UniProt P15328 25-233).
T1 construct: Bought soluble protein; also called Folate Receptor 1
T1 sequence (P15328 25-233 limits assumed): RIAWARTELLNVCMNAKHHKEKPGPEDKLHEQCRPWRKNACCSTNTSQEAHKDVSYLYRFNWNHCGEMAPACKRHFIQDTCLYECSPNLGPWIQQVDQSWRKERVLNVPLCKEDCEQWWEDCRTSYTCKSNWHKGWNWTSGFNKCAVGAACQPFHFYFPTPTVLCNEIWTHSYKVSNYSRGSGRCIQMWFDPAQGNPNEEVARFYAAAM
Kind of test: BLI, IgG on anti-human Fc sensor, 50 nM FOLR1. (BLI is a label-free optical method that tracks binding on a fibre tip over time.)
For the molecule B1, the binding result was “binds”.
Next, B2: “binds”; B3: “binds”.
Turning to B4, the binding result is “binds”.
Next, B5: “binds”.
As for B6, the entry is “binds”; as for B7, “binds”.
Next, B8: “binds”.
Turning to B9, the binding result is recorded as “binds”.
As for B10, the entry is “binds”.
As for B11, the entry is “binds”.
As to B12, the binding result is on record as “binds”.
Next, B13: “binds”; B14: “binds”; B15: “binds”.
Next, B16: “binds”; B17: “binds”; B18: “binds”.
Next, B19: “binds”.
Take B20: the binding result is listed as “binds”.
Next, B21: “binds”; B22: “binds”.
With B23, the binding result is recorded as “binds”.
Next, B24: “binds”; B25: “binds”; B26: “binds”.
Take B27: the binding result is listed as “binds”.
As for B28, the entry is “binds”.
As for B29, the entry is “binds”.
With B30, the binding result was “binds”.
Next, B31: “binds”.

For the origin of these results see patent US20220298260A1 (MYTHIC THERAPEUTICS, published 2022).
